One molecule from article PMC12109899, “Aptamer-Based Planar Electric Double-Layer Field-Effect Transistor: A Novel Approach for Sensitive Troponin I Sensing” can be followed below.

For this data set, the target named is cardiac troponin I (cTnI, TnI) (UniProt P19429 2-210). The experiment in a line: fluorescence decrease of surface-immobilized FAM aptamer; aptamer on gold electrode; pH 7.4; 0.02x PBS stated for the chip rinse; aptamer immobilized at 24 °C for 24 h; binding temperature not given. The following applies: label: 3' FAM; single strand.
cardiac troponin I (cTnI, TnI), sequence (P19429 2-210): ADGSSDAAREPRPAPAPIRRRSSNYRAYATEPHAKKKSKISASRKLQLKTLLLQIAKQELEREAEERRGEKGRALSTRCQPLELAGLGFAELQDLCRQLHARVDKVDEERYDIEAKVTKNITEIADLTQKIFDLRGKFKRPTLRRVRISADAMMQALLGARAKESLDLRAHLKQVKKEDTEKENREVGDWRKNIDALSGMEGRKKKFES

As for CGTGCAGTACGCCAACCTTTCTCATGCGCTGCCCCTCTTA (ssDNA, 5' disulfide (S-S), reduced with TCEP to thiol; immobilized on gold) [Tro4 aptamer], the binding result was “binds”.
